Measured values taken from patent US8026218 (UNIVERSITY OF ARIZONA, dated 2011).
Bridge positions count the residues as written; N and C are the ends. Square brackets hold non-standard residues; d marks the D form. Ends that are not written are not given here. * marks the point of attachment. NHBn(CF3)2 = C-terminal amide NH-Bn(CF3)2, a benzyl group carrying two CF3; Glc = O-glucosyl on Ser side chain (Ser(OGlu)/Ser(OGlc)); NH(3,5-(CF3)2-benzyl) = FC(F)(F)c1cc(CN*)cc(C(F)(F)F)c1; NMeBn(3,5-(CF3)2) = CN(Cc1cc(C(F)(F)F)cc(C(F)(F)F)c1)*; OBzl(3,5-(CF3)2) = FC(F)(F)c1cc(CO*)cc(C(F)(F)F)c1; NH‑Bn(CF3)2 = C-terminal Bn(CF3)2 amide; Dmt = Cc1cc(O)cc(C)c1C[C@H](N)C(=O)O; NMe(benzyl) = CN(Cc1ccccc1)*; Nle = CCCC[C@H](N)C(=O)O; NHBn = c1ccc(CN*)cc1; OBn = c1ccc(CO*)cc1; βAla = NCCC(=O)O

How the values were obtained:
rat µ opioid receptor [1] = biological target: T1, rat µ opioid receptor (rat, UniProt P33535 1-398); assay: radioligand competition vs [3H]DAMGO, membranes of rMOR cells
T1 construct: whole, on cells; Used as crude membrane preparations of the transfected cells; also called rMOR; MOR
T1 sequence (P33535 whole entry): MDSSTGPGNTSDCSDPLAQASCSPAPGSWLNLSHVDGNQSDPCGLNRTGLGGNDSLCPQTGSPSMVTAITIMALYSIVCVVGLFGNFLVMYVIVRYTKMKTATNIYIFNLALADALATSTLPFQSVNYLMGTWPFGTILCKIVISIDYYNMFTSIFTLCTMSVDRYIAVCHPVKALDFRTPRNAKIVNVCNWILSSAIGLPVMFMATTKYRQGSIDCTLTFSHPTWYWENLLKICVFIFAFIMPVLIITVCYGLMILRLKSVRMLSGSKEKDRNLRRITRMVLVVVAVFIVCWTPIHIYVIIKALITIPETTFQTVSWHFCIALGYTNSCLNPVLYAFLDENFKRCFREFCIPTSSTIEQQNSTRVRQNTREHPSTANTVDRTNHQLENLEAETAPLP

guinea pig NK1 receptor = guinea pig NK1 receptor (guinea pig, UniProt P30547 1-407); assay: cell-based or functional assay
human δ opioid receptor [2] = biological target: T2, human δ opioid receptor (human, UniProt P41143 1-372); assay: cell-based or functional assay
T2 sequence (P41143 whole entry, stated change not applied): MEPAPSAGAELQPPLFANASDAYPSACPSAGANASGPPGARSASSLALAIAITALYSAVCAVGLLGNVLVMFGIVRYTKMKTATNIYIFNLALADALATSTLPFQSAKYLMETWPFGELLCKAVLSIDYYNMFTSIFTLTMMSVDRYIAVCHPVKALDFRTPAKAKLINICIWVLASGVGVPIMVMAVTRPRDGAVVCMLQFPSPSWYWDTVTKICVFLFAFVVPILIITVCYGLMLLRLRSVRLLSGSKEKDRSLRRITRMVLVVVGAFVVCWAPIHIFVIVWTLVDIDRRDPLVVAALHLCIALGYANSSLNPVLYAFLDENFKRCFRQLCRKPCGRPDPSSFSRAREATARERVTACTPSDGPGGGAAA

[3] = biological target: µ opioid receptor of the guinea pig isolated ileum (guinea pig, UniProt P97266 1-98); assay: cell-based or functional assay
rat µ opioid receptor [4] = biological target: T1, rat µ opioid receptor; assay: cell-based or functional assay
rat NK1 receptor [5] = biological target: T3, rat NK1 receptor (rat, UniProt P14600 1-407); assay: radioligand competition vs [3H]substance P, membranes of rNK1 CHO cells
T3 construct: whole, on cells; Used as membrane preparations of transfected CHO cells; also called rNK1; rat neurokinin-1 receptor
T3 sequence (P14600 whole entry): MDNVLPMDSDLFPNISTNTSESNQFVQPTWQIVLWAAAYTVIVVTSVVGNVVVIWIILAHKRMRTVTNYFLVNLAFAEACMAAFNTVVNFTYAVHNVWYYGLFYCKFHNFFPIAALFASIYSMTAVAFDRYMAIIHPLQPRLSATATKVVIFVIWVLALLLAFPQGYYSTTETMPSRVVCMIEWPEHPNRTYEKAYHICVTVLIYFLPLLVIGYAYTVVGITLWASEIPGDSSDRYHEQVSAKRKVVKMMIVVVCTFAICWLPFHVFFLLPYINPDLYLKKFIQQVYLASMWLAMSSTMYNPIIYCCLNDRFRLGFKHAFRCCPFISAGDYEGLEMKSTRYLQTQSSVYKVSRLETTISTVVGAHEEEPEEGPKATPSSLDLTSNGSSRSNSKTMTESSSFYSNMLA

human NK1 receptor [6] = biological target: T4, human NK1 receptor (human, UniProt P25103 1-407); assay: radioligand competition vs [3H]substance P, membranes of hNK1 CHO cells
T4 construct: whole, on cells; Used as membrane preparations of transfected CHO cells; also called hNK1; human neurokinin-1 receptor
T4 sequence (P25103 whole entry): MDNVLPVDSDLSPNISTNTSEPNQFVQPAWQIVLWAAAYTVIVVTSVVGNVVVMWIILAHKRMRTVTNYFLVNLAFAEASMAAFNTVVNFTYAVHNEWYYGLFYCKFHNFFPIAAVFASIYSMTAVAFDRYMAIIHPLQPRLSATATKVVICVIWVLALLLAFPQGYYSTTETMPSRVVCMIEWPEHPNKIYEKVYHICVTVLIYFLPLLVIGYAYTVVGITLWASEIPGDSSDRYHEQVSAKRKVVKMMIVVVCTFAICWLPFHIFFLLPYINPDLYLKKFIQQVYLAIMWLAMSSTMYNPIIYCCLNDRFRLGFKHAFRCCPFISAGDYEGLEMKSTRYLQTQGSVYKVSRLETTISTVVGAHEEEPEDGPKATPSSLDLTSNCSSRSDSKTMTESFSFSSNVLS

human δ opioid receptor [7] = biological target: T2, human δ opioid receptor; assay: radioligand competition vs [3H]DPDPE, membranes of hDOR cells
rat µ opioid receptor [8] = biological target: T5, rat µ opioid receptor (rat, UniProt P33535 1-398); assay: cell-based or functional assay; remark: listed apart in the source
T5 sequence (P33535 whole entry): as the sequence (P33535 whole entry) above

human δ opioid receptor [9] = biological target: human δ opioid receptor (human, UniProt P41143 1-372); assay: cell-based or functional assay; remark: listed apart in the source
Target sequence in this assay (P41143 whole entry, stated change not applied): as the sequence (P41143 whole entry, stated change not applied) above

rat NK1 receptor [10] = biological target: T6, rat NK1 receptor (rat, UniProt P14600 1-407); assay: competition vs [3H]Substance P, rNK1 CHO cell membranes
T6 construct: whole, on cells; membrane preparations of the transfected cells were used; also called rNK1; rNK-1
T6 sequence (P14600 whole entry): as the sequence (P14600 whole entry) above

rat µ opioid receptor [11] = biological target: T5, rat µ opioid receptor; assay: competition vs [3H]DAMGO, rMOR cell membranes
human NK1 receptor [12] = biological target: T7, human NK1 receptor (human, UniProt P25103 1-407); assay: competition vs [3H]substance P, membranes of hNK1-transfected CHO cells
T7 construct: whole, on cells; Assayed as membrane preparations of transfected CHO cells; also called hNK1; human neurokinin-1 receptor
T7 sequence (P25103 whole entry): as the sequence (P25103 whole entry) above

Chain of µ opioid receptor of the guinea pig isolated ileum (P97266 whole entry): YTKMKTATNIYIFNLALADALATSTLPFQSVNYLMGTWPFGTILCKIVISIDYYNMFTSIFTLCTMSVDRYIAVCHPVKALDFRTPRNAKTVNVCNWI
Chain of guinea pig NK1 receptor (P30547 whole entry): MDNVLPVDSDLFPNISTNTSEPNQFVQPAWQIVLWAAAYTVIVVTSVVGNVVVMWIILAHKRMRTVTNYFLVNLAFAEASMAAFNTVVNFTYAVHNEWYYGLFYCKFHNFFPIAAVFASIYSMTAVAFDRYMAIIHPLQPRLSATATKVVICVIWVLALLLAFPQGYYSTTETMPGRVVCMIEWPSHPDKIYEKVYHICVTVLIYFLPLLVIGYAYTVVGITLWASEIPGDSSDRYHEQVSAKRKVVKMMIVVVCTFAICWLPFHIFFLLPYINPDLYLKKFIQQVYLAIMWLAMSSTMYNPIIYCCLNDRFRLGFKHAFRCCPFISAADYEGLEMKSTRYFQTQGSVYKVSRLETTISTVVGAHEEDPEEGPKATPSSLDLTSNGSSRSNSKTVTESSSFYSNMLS

Binder | Ki (rat µ opioid receptor [1]) [nM] | GPI/LMMP SP antagonist Ke (guinea pig NK1 receptor) [nM] | GTP binding hDOR EC50 (human δ opioid receptor [2]) [nM] | GPI/LMMP opioid(mu) agonist IC50 [3] | GTP binding rMOR EC50 (rat µ opioid receptor [4]) [nM] | Ki (rat NK1 receptor [5]) [nM] | Ki (human NK1 receptor [6]) [nM] | Ki (human δ opioid receptor [7]) [nM] | GTP EMax (rat µ opioid receptor [8]) | GTP EMax (human δ opioid receptor [9]) | Ki (rat NK1 receptor [10]) [nM] | Ki (rat µ opioid receptor [11]) [nM] | GTP binding rMOR Emax (rat µ opioid receptor [4]) [%] | Ki (human NK1 receptor [12]) [nM] | GTP binding hDOR Emax (human δ opioid receptor [2]) [%] | LogIC50 (human NK1 receptor [12])
[Dmt][dA]GFMPLW-NHBn [DmtDAlaGlyPheMetProLeuTrpNHBn (TY034)] | 0.14 | 36.9 | 0.3 | 11.4 nM | 0.4 | 317 | 2.39 | 0.1 |  |  |  |  |  |  |  | 
Y[dA]GF[βAla]W-{O‑Bzl(CF3)2} (also called NP32) [Tyr-DAla-Gly-Phe-β-Ala-Trp-O-Bzl(CF3)2] |  |  |  |  |  |  |  |  | 70 | 87 | 1.6 | 11.2 |  |  |  | 
Y[dA]GFGW-{O‑Bzl(CF3)2} [Tyr-DAla-Gly-Phe-Gly-Trp-O-Bzl(CF3)2] |  |  |  |  |  |  |  |  | 36 | 87 |  |  |  |  |  | 
YXGFXPLW (D-Pen at 2 and 5 (X); disulfide 2-5 (cyclic); C-terminal NH-Bn(CF3)2 amide) [Tyr[DPenGlyPheDPen]ProLeuTrpNHBn(CF3)2 (TY049)] | 2050 |  |  |  |  | 4.54 | 0.18 |  |  |  |  |  | 25 |  |  | 
H-Y[dA]GFPLW-NHBn (also: TFA salt, TFA salt; also called TY008) [H-Tyr-DAla-Gly-Phe-Pro-Leu-Trp-NH-Bzl] |  |  |  |  |  |  |  |  |  |  |  |  |  | 14 |  | 
Y[dA]GF[dF]PLW-{OBzl(3,5-(CF3)2)} [TyrDAlaGlyPheDPheProLeuTrpOBn(CF3)2 (TY007)] | 410 | 69.6 | 16.7 | 9.2% | 345 | 3 | 1.3 | 110 |  |  |  |  | 23.6 |  | 22.9 | 
Y[dA]GFFPLW-{NMeBn(3,5-(CF3)2)} [TyrDAlaGlyPhePheProLeuTrpNMeBn(CF3)2 (TY017)] | 74.7 |  | 122 |  | 349 | 0.57 | 0.213 | 26.5 |  |  |  |  | 62.4 |  | 125 | 
Y[dA]GFFPLW-{NHBn(CF3)2} [TyrDAlaGlyPhePheProLeuTrpNHBn(CF3)2 (TY015)] | 53.7 |  | 81.4 |  | 176 | 0.98 | 0.192 | 12.5 |  |  |  |  | 64.4 |  | 142 | 
Y[dA]GFLPLW-{OBzl(3,5-(CF3)2)} [TyrDAlaGlyPheLeuProLeuTrpOBn(CF3)2 (TY004)] | 23.3 | 19.4 | 9.6 | 341 nM |  | 0.8 | 0.016 | 5 |  |  |  |  | 44.5 |  | 42.5 | 
Y[dC]GFMPLW-{OBzl(3,5-(CF3)2)} [TyrDCysGlyPheMetProLeuTrpOBn(CF3)2 (TY031)] | 172 |  |  |  |  | 7.06 | 0.847 | 55.4 |  |  |  |  |  |  |  | 
Y[dA]GFGPLW-{OBzl(3,5-(CF3)2)} [TyrDAlaGlyPheGlyProLeuTrpOBn(CF3)2 (TY006)] | 27 | 5.4 | 50.2 | 384 nM | 41.7 | 1 | 0.016 | 36.1 |  |  |  |  | 35.9 |  | 33.6 | 
Y[dA]GFFPLW-OBn [TyrDAlaGlyPhePheProLeuTrpOBn (TY014)] | 36.3 |  | 25.6 |  | 76 | 124 | 0.265 | 11.5 |  |  |  |  | 72.3 |  | 137 | 
Y[dA]GFSPLW-{NH(3,5-(CF3)2-benzyl)} (not fully specified (residue 5); printed as TyrDAlaGlyPheSer(OGlu)ProLeuTrpNHBn(CF3)2) [TyrDAlaGlyPheSer(OGlu)ProLeuTrpNHBn(CF3)2 (TY042)] | 256 | 2.83 | 51.9 | 1890 nM | 176 | 1.45 | 0.00027 | 58.5 |  |  |  |  | 28 |  | 47 | 
Y[dA]GFFPLW-{OBzl(3,5-(CF3)2)} [TyrDAlaGlyPhePheProLeuTrpOBn(CF3)2 (TY003)] | 28.3 | 14.4 | 20.8 | 6.6 % @ 1 uM | 58.7 | 0.88 | 0.021 | 14.6 |  |  |  |  | 36.3 |  | 39 | 
[Dmt][dA]GF[Nle]PS(Glc)W-{NH‑Bn(CF3)2} [DmtDAlaGlyPheNleProSer(OGlu)TrpNHBn(CF3)2 (TY056)] | 1.9 | 1.2 |  | 24.9 nM | 44.9 | 10.1 | 0.0017 |  |  |  |  |  | 66 |  |  | 
Y[dA]GF[Nle]PS(Glc)W-{NH‑Bn(CF3)2} [TyrDAlaGlyPheNleProSer(OGlu)TrpNHBn(CF3)2 (TY041)] | 8 | 1.8 | 7.9 | 517 nM | 18 | 13.6 |  |  |  |  |  |  | 42 |  | 62 | 
Y[dC]GF[Nle]PCW-{NH(3,5-(CF3)2-benzyl)} (disulfide 2-7, also called [D-Cys2, Cys7]TY027) [Tyr[DCysGlyPheNleProCys]TrpNHBn(CF3)2 (TY035)] | 79.2 | 2.2 | 0.02 | 1010 nM | 36 |  | 0.091 | 1.29 |  |  |  |  | 39 |  | 11 | 
MPLW-{OBzl(3,5-(CF3)2)} [MetProLeuTrpOBn(CF3)2 (TY036)] | 4550 |  |  |  |  | 0.99 |  | 1280 |  |  |  |  |  |  |  | 
YXGFXPLW (D-Pen (D-penicillamine) at 2 (X); Pen (L-penicillamine) at 5 (X); disulfide 2-5 (cyclic); C-terminal NH-Bn(CF3)2 amide) [Tyr[DPenGlyPhePen]ProLeuTrpNHBn(CF3)2 (TY046)] | 2330 |  | 17.2 |  |  |  | 0.0053 | 1.7 |  |  |  |  |  |  | 15 | 
H-Y[dA]GFPLW-{NMe(benzyl)} (also: TFA salt, TFA salt; also called TY010) [H-Tyr-D-Ala-Gly-Phe-Pro-Leu-Trp-NMe-Bzl] |  |  |  |  |  |  |  |  |  |  |  |  |  | 1.6 |  | -8.5
